Measured values published in US20180265572A1 (Bristol-Myers Squibb, published 2018).
Values joined by “and” are separate entries in the source; they are usually repeats but may differ in a detail not shown here. Equal values may be shown once. Blank lines part the entries; values can stand above or below the binder they belong to.

Assays:
human IGF-IR-Fc fusion [1] = target: T1, human IGF-IR-Fc fusion (human, UniProt P08069 31-932); experiment: SPR (Biacore), captured IGF-IR-Fc, midscale material
T1 construct: range 1-932; If it counts on the precursor, it includes the signal peptide; also called IGF1R-Fc; not shown: hinge and constant regions of human IgG

VEGFR2-Fc (R&D Systems) [2] = target: T2, VEGFR2-Fc (R&D Systems) (UniProt P35968 20-764); experiment: SPR (Biacore), immobilised VEGFR2-Fc, midscale material
T2 construct: Bought reagent; not shown: Fc part of the bought fusion; not described

human IGF-IR on cells = human IGF-IR on cells (human, UniProt P08069 31-1367); experiment: cell-based or functional assay
[3] = target: VEGFR2 fusion protein on Ba/F3 cells (extracellular domain of hVEGFR2 and intracellular domain of hEpoR) (human, UniProt P35968 20-764; P19235 274-508, limits assumed); experiment: cell-based or functional assay
human IGF-IR-Fc fusion [4] = target: T1, human IGF-IR-Fc fusion; experiment: SPR (Biacore), IGF-IR-Fc captured on Protein A/G, HTPP purified binder in solution, n=1, KD approximate
VEGFR2-Fc (R&D Systems) [5] = target: T2, VEGFR2-Fc (R&D Systems); experiment: SPR (Biacore), immobilized VEGFR2-Fc, midscale purified binder
human IGF-IR-Fc fusion [6] = target: T1, human IGF-IR-Fc fusion; experiment: SPR (Biacore), captured IGF1R-Fc, midscale purified binder
VEGFR2-Fc (R&D Systems) [7] = target: T2, VEGFR2-Fc (R&D Systems); experiment: SPR (Biacore), VEGFR2-Fc immobilized directly on the chip
Method: (§1) Affinity data was also measured from midscale and large scale material, for the pegylated version of the tandem construct 385A08-Fn-V2B-cys (SEQ ID NO: 9, with and without his tag). The specific materials and methods for these calculations are described below.
(§2) An alternative method is to capture the IGF—IR-Fc on Protein A. This method was used for calculating the affinity and kinetics of certain versions of the construct 385A08-Fn-V2B-cys (both pegylated and non-pegylated and with or without his tag) from midscale and large scale materials. Specifically, IGF—IR-Fc was captured on Protein A immobilized on a Biacore CM5 sensor chip by amine coupling. VEGFR2-Fc was immobilized directly on a CM5 chip by amine coupling. The affinity and kinetic analysis involved the capture of IGF—IR-Fc on Protein A followed by injection of the tandem adnectin in solution over IGF—IR-Fc and VEGFR2-Fc. The analytical surface was regenerated between samples with glycine pH 1.5. Sensorgrams were obtained at each concentration and were evaluated using Biacore T100 evaluation software to determine the rate constants kₐ (kₒₙ) and kd (koff).
The functionality of the V2B domain was assessed by evaluating a concentration series of the midscale and large scale purification of the tandem construct 385A08-Fn-V2B (pegylated, and non-pegylated versions, his-tag and non-his-tag versions) vs. VEGFR2-Fc that was directly immobilized on a CM5 chip surface (GE, Piscataway, N.J.). VEGFR2-Fc (R&D Systems, MN) was diluted to 12 ug/mL in 50 mM Acetate pH 5.0 for an immobilization level of ˜1300 RU. Varying concentrations of 385A08-Fn-V2B in the solution phase were monitored for association (2 minutes) and dissociation (10 minutes) kinetics at a flow rate of 50 uL/min. Two 30 second injections of 50 mM glycine pH 1.7 were used to regenerate the surface.

human IGF-IR-Fc fusion [8] = target: T1, human IGF-IR-Fc fusion; experiment: SPR (Biacore), IGF1R-Fc captured on Protein A
Method: as §1, §2

[9] = target: VEGFR-2 in nude mice (in vivo) (UniProt P35918 20-1345, limits assumed); experiment: cell-based or functional assay
[10] = target: VEGFR-2 in cynomolgus monkeys (in vivo); experiment: cell-based or functional assay
[11] = target: T3, VEGFR-2 (KDR) on transfected cells (UniProt P35968 20-1356, limits assumed); experiment: competitive blocking assay on 293:KDR cells; competitor 200 nM IRDye 800CW-labelled Peg-V2Bshort
T3 construct: whole, on cells; also called Flk-1
Method: Similarly, the pegylated, his-tagged construct 385A08-Fn-V2B-cys was able to block the interaction of a mono-specific ¹⁰Fn3-based VEGFR-2 binder (Peg-V2Bshort, SEQ ID NO: 28) with VEGFR-2 present on 293:KDR cells. […] In particular, in a Ba/F3 assay (described below), the IC₅₀ for the monomeric, non-pegylated VEGFR2 binder V2Bshort (SEQ ID NO: 28) is approximately 0.1-3 nM whereas the IC₅₀ for the monomeric, non-pegylated VEGFR2 binder having SEQ ID NO: 44 (e.g., with an N-terminal extension) is approximately 8-13 nM. […] Both the R⁺ and 293:KDR cell based competitive blocking assays are described in detail in the materials and methods section below.
293:KDR (Sibtech, Brookfield, Conn.) were plated in 96 well plates at a concentration of 25,000 cells per well in DMEM (Invitrogen, Carlsbad, Calif.) containing 10% fetal bovine serum (Hyclone, Logan, Utah). The following day, cells were washed twice in serum free DMEM containing 0.1% BSA (Invitrogen, Carlsbad, Calif.). After the washes, the cells were incubated at 4° C. for 10 minutes in binding buffer (serum free DMEM+0.1% BSA) containing increasing concentrations of VEGFR-2 antagonists or controls. Typical controls included the mono-specific ¹⁰Fn3-based VEGFR2 binder (Peg-V2Bshort, SEQ ID NO: 28) (positive control) or the mono-specific ¹⁰Fn3-based IGF-IR binder (AT580-PEG40, SEQ ID NO: 27) (negative control). […]

Kd (human IGF-IR-Fc fusion [1]): 0.04 nM
Kd (VEGFR2-Fc (R&D Systems) [2]): 0.5 nM
IC50, inhibition of proliferation of Rh41 cells (n=1) (human IGF-IR on cells): 27 nM
IC50, inhibition of VEGF-A dependent proliferation of Ba/F3 cells [3]: 1.2 nM
Kd (human IGF-IR-Fc fusion [4]): ~0.3 nM
koff (VEGFR2-Fc (R&D Systems) [5]): 0.000193 s⁻¹
kon (VEGFR2-Fc (R&D Systems) [5]): 414000 M⁻¹ s⁻¹
koff (human IGF-IR-Fc fusion [6]): 0.000308 s⁻¹
kon (human IGF-IR-Fc fusion [6]): 7.72e+06 M⁻¹ s⁻¹
B1: 385A08-GS10 (SEQ ID NO: 22)-V2B, his-tagged (designed binder)
chain: MGVSDVPRDLEVVAATPTSLLISWSARLKVARYYRITYGETGGNSPVQEFTVPKNVYTATISGLKPGVDYTITVYAVTRFRDYQPISINYRTEIDKGSGSGSGSGSGSGSGSGSGSVSDVPRDLEVVAATPTSLLISWRHPHFPTRYYRITYGETGGNSPVQEFTVPLQPPTATISGLKPGVDYTITVYAVTDGRNGRLLSIPISINYRTEIDKPSQHHHHHH
notes: also called 385A08-GS10-V2B; 385A08-GS10-V2B (Ser tail)

Kd (human IGF-IR-Fc fusion [1]): 0.05 nM
Kd (VEGFR2-Fc (R&D Systems) [2]): 0.6 nM
IC50, inhibition of VEGF-A dependent proliferation of Ba/F3 cells [3]: 1.9 nM
Kd (human IGF-IR-Fc fusion [4]): ~0.2 nM
koff (VEGFR2-Fc (R&D Systems) [5]): 0.000222 s⁻¹
kon (VEGFR2-Fc (R&D Systems) [5]): 382000 M⁻¹ s⁻¹
koff (human IGF-IR-Fc fusion [6]): 0.000204 s⁻¹
kon (human IGF-IR-Fc fusion [6]): 4.18e+06 M⁻¹ s⁻¹
B2: V2B-GS10 (SEQ ID NO: 22)-385A08, his-tagged (designed binder)
chain: MGVSDVPRDLEVVAATPTSLLISWRHPHFPTRYYRITYGETGGNSPVQEFTVPLQPPTATISGLKPGVDYTITVYAVTDGRNGRLLSIPISINYRTEIDKGSGSGSGSGSGSGSGSGSGSVSDVPRDLEVVAATPTSLLISWSARLKVARYYRITYGETGGNSPVQEFTVPKNVYTATISGLKPGVDYTITVYAVTRFRDYQPISINYRTEIDKPSQHHHHHH
notes: also called V2B-GS10-385A08; V2B-GS10-385A08 (Ser tail)

IC50, inhibition of proliferation of Rh41 cells (n=1) (human IGF-IR on cells): 40 nM
IC50, inhibition of VEGF-A dependent proliferation of Ba/F3 cells [3]: 1 nM
Kd (human IGF-IR-Fc fusion [4]): ~0.3 nM
B3: 385A08-GS5-V2B (designed binder)
single chain: MGVSDVPRDLEVVAATPTSLLISWSARLKVARYYRITYGETGGNSPVQEFTVPKNVYTATISGLKPGVDYTITVYAVTRFRDYQPISINYRTEIDKGSGSGSGSGSVSDVPRDLEVVAATPTSLLISWRHPHFPTRYYRITYGETGGNSPVQEFTVPLQPPTATISGLKPGVDYTITVYAVTDGRNGRLLSIPISINYRTEIDKPSQHHHHHH
notes: also called 385A08-GS5-V2B (Ser tail)

IC50, inhibition of proliferation of Rh41 cells (n=1) (human IGF-IR on cells): 0.07 nM
B4: AT580-PEG20-AT580 (designed binder)
chain: MGVSDVPRDLEVVAATPTSLLISWSARLKVARYYRITYGETGGNSPVQEFTVPKNVYTATISGLKPGVDYTITVYAVTRFRDYQPISINYRTEIDKPCQ
modifications: the two chains are joined by a 20 kDa PEG at position 98 (cysteine) of each; labelled with IRDye 800CW in the competition assay

Kd (VEGFR2-Fc (R&D Systems) [7]): 17.2 nM and 5.8 nM
koff (VEGFR2-Fc (R&D Systems) [7]): 0.000115 s⁻¹ and 7.49e-05 s⁻¹
kon (VEGFR2-Fc (R&D Systems) [7]): 6670 M⁻¹ s⁻¹ and 13000 M⁻¹ s⁻¹
Kd (human IGF-IR-Fc fusion [8]): 0.982 nM and 1.04 nM
koff (human IGF-IR-Fc fusion [8]): 0.00027 s⁻¹ and 0.000253 s⁻¹
kon (human IGF-IR-Fc fusion [8]): 275000 M⁻¹ s⁻¹ and 244000 M⁻¹ s⁻¹
plasma IC50, indirect-response PD model, nude mice bearing the A673 tumor [9]: 7000 nM
plasma IC50 (grand mean), PK/PD model, monkeys [10]: 159 nM
B5: pegylated, non-his-tag version of 385A08-Fn-V2B-cys (designed binder)
chain: MGVSDVPRDLEVVAATPTSLLISWSARLKVARYYRITYGETGGNSPVQEFTVPKNVYTATISGLKPGVDYTITVYAVTRFRDYQPISINYRTEIDKPSTSTSTVSDVPRDLEVVAATPTSLLISWRHPHFPTRYYRITYGETGGNSPVQEFTVPLQPPTATISGLKPGVDYTITVYAVTDGRNGRLLSIPISINYRTEIDKPCQ
modifications: PEG on the single cysteine at position 203
notes: also called 385A08-Fn-V2B-cys (pegylated, no his-tag); 385A08-Fn-V2B-Cys (non-his tagged)

IC50, inhibition of VEGF-A dependent proliferation of Ba/F3 cells [3]: 2 nM
Kd (human IGF-IR-Fc fusion [4]): ~0.2 nM
B6: V2B-GS5-385A08 (designed binder)
single chain: MGVSDVPRDLEVVAATPTSLLISWRHPHFPTRYYRITYGETGGNSPVQEFTVPLQPPTATISGLKPGVDYTITVYAVTDGRNGRLLSIPISINYRTEIDKGSGSGSGSGSVSDVPRDLEVVAATPTSLLISWSARLKVARYYRITYGETGGNSPVQEFTVPKNVYTATISGLKPGVDYTITVYAVTRFRDYQPISINYRTEIDKPSQHHHHHH
notes: also called V2B-GS5-385A08 (Ser tail)

IC50, inhibition of proliferation of Rh41 cells (n=1) (human IGF-IR on cells): > 50 nM
IC50, inhibition of VEGF-A dependent proliferation of Ba/F3 cells [3]: 10 nM
IC50 [11]: ~20 nM
B7: Peg-V2Bshort (designed binder)
chain: GEVVAATPTSLLISWRHPHFPTRYYRITYGETGGNSPVQEFTVPLQPPTATISGLKPGVDYTITVYAVTDGRNGRLLSIPISINYRTEIDKPCQ
modifications: pegylated at position 93 (single cysteine); the tracer form is labelled with IRDye 800CW

IC50, inhibition of proliferation of Rh41 cells (n=1) (human IGF-IR on cells): 6 nM
IC50, inhibition of VEGF-A dependent proliferation of Ba/F3 cells [3]: 0.8 nM
B8: V2B-Fn-385A08-Cys (designed binder)
single chain: MGVSDVPRDLEVVAATPTSLLISWRHPHFPTRYYRITYGETGGNSPVQEFTVPLQPPTATISGLKPGVDYTITVYAVTDGRNGRLLSIPISINYRTEIDKPSTSTSTVSDVPRDLEVVAATPTSLLISWSARLKVARYYRITYGETGGNSPVQEFTVPKNVYTATISGLKPGVDYTITVYAVTRFRDYQPISINYRTEIDKPCQHHHHHH

IC50, inhibition of VEGF-A dependent proliferation of Ba/F3 cells [3]: 2.2 nM
Kd (human IGF-IR-Fc fusion [4]): ~0.2 nM
B9: V2B-Fn-385A08 (designed binder)
single chain: MGVSDVPRDLEVVAATPTSLLISWRHPHFPTRYYRITYGETGGNSPVQEFTVPLQPPTATISGLKPGVDYTITVYAVTDGRNGRLLSIPISINYRTEIDKPSTSTSTVSDVPRDLEVVAATPTSLLISWSARLKVARYYRITYGETGGNSPVQEFTVPKNVYTATISGLKPGVDYTITVYAVTRFRDYQPISINYRTEIDKPSQHHHHHH
notes: also called V2B-Fn-385A08 (Ser tail)

IC50, inhibition of proliferation of Rh41 cells (n=1) (human IGF-IR on cells): 33 nM
IC50, inhibition of VEGF-A dependent proliferation of Ba/F3 cells [3]: 1.3 nM
B10: 385A08-Fn-V2B-Cys (designed binder)
single chain: MGVSDVPRDLEVVAATPTSLLISWSARLKVARYYRITYGETGGNSPVQEFTVPKNVYTATISGLKPGVDYTITVYAVTRFRDYQPISINYRTEIDKPSTSTSTVSDVPRDLEVVAATPTSLLISWRHPHFPTRYYRITYGETGGNSPVQEFTVPLQPPTATISGLKPGVDYTITVYAVTDGRNGRLLSIPISINYRTEIDKPCQHHHHHH
